We go through 142 substances from the supplement of paper PMC12042874.

± gives the uncertainty stated by the source.

The nature of this data set: amyloid nucleation score (Sup35N fusion, yeast selection) (log enrichment); library NNK2; higher = more nucleation; inactive = no reads after selection. Summed up:
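On medium lacking adenine and uracil, psi-negative yeast expressing peptides of 20 random codons fused to Sup35N were grown 7 days at 30°C after a 24-hour induction with 100 μM copper sulfate. Illumina sequencing of input and output plasmid inserts gave the reads, and sequences under 100 input reads were excluded. The nucleation score is the DiMSum log enrichment of output over input reads, centred on the mode score of non-aggregating sequences.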
In turn, SCSTYNDSSVYWFN showed an amyloid nucleation score of 2.04 ± 0.077.
Regarding SCTDLLYDIDCIHSHECLLL, the amyloid nucleation score is -0.397 ± 0.35.
In turn, SCTWRRGFSSQVKYMNRQSI showed an amyloid nucleation score of 0.989 ± 0.13.
In the case of SCYDVCPLCSHCRIGTKM it was 1.92 ± 0.2.
On to SCYRIWIMILVIGFSLNRRL, for which the amyloid nucleation score was -0.208 ± 0.2.
The result for SDAIKWIYL reads 0.335 ± 0.29.
In the case of SDGLGSILIFGPPNY it was -0.992 ± 0.3; in that of SDIVNMGEVLVLGDSYWREG, -0.449 ± 0.63; in that of SDLAWGERHLLEGLLVRPTT, 0.508 ± 0.29.
In the case of SDMYM it was -0.324 ± 1.1; in that of SEFPIVQLCIAWDKLCKHLY, -0.179 ± 0.26.
In the case of SELRTAKPVN, the amyloid nucleation score amounted to 0.635 ± 0.26.
In turn, SEMGTVRRYCLRAYRVCVAY returned an amyloid nucleation score of 0.757 ± 0.57.
In the case of SENFLYLDVVFMCHSMIDRG it was 0.131 ± 0.54.
On to SERFDRAY, for which the amyloid nucleation score was -1.2 ± 0.42.
The result for SEVCNCVGLGSGCDVYGA reads 3.17 ± 0.094.
Consider SEVGEGSPIDMTLARSGSVF, for which the amyloid nucleation score is 0.913 ± 0.81.
The substance SEYVDFYGFLGLVFTLRRSA gave an amyloid nucleation score of 0.43 ± 0.64.
In the case of SFAMSRHLQPGGNEQFRM it was 1.16 ± 0.57; in that of SFELFCVWGR, -0.827 ± 0.54; in that of SFGMQTEMYPGSIGLV, “inactive”.
In the case of SFIWKLYMLHWNWRSTEEGE it was -0.17 ± 0.65; in that of SFLKSMMAPIYKCSVWCSML, -0.819 ± 0.64; in that of SFLTYKARTMSSKLVKSIML, -0.563 ± 0.76.
The result for SFMALYLSWFSQRDYAMAGS reads 0.639 ± 0.46; that for SFNEMILHLIPRSCSLKKYI, -0.441 ± 0.28; that for SFNFEVEWRRASNLSFRWGR, 0.039 ± 0.61.
Turning to SFNNTHVVPMYLFF, the amyloid nucleation score came out at 5.402 ± 0.047.
Take SFPRRMPSD: the amyloid nucleation score was 2.38 ± 0.071.
In the case of SFRDDICWVRWGSL, the amyloid nucleation score is 0.251 ± 0.23.
In the case of SFRDLDAAVEEV it was -0.225 ± 0.48; in that of SFRRSE, -0.388 ± 1.
In the case of SFRTLVP it was -0.905 ± 0.63.
In the case of SFSHGSDAIGNVYCDNIVYK it was “inactive”; in that of SFSRSSAYVVHVLGYLEFRT, -0.004 ± 0.65.
The substance SFTFCARNSGLIGWSGDISS registered an amyloid nucleation score of 4.07 ± 0.1.
The result for SFVAAEQIMASIEW reads 0.706 ± 0.29; that for SFVVWTPWLSPSYACPRQIF, -0.124 ± 0.76; that for SFWDRGFNIRQ, 6.145 ± 0.038.
In the case of SFYRCGLNYCNGTS it was 5.94 ± 0.06.
In the case of SFYVNMSSFFRSLEEV it was “inactive”.
Consider SGFEDVHAVVRFLIGVQYGG, for which the amyloid nucleation score was -0.515 ± 1.1.
For the substance SGFII, the amyloid nucleation score was -1.18 ± 1.1.
The result for SGISKTGLYASYWGYLSGGK reads -0.453 ± 0.27.
The result for SGLFFTHTFRKLVYRLRSTK reads -1.08 ± 1.1; that for SGLGGGFFSIVCYTHISVRE, -0.069 ± 0.55; that for SGLIY, “inactive”.
In the case of SGMGSSYLFQFGSMYAFDDC it was 0.636 ± 0.34; in that of SGNIIFNRRMRRAALEWDIT, -0.125 ± 0.63.
With SGPVERFLILLIRCMNRLYV, the amyloid nucleation score is -1.19 ± 0.44.
In the case of SGQRQLCVWCVCVAGGRIKL it was 6.54 ± 0.076; in that of SGSRVYFQTPN, “inactive”.
The result for SGTDDLCMVPLGYLLTMRLP reads 0.7 ± 0.39; that for SGVAPVIMYCAIVCGGLHM, 8.517 ± 0.067; that for SGVHNYSARVG, -0.442 ± 0.46.
Consider SGWELYP, for which the amyloid nucleation score came out at 1.91 ± 0.11.
In the case of SHCLNLGDLRVGYKSGM it was “inactive”; in that of SHCTLKNLV, -0.27 ± 1.1; in that of SHFFAQPGNGMRWCVRIKVC, 0.744 ± 0.8.
The result for SHLTNDVY reads 0.614 ± 0.43.
As to SHSVKVMFNGLRVRL, the amyloid nucleation score was -0.216 ± 0.63.
SHTPLTG: the amyloid nucleation score is -0.939 ± 1.
The result for SIANYGFVLNNHIRFFRSSG reads 2.32 ± 0.15; that for SICVRKYVKFWVWAMNTLFR, -0.174 ± 0.19; that for SIELNLPMFSIRVKMCSRGE, 2.53 ± 0.15.
In turn, SIFFC had an amyloid nucleation score of 2.09 ± 0.09.
The result for SIFKSIWDYLIYRSLVSHPH reads -0.305 ± 1; that for SIFLREDVVFSDLLRWFR, 5.572 ± 0.045; that for SIINLTVPAHPHLNNPLRRQ, 4.76 ± 0.075.
In the case of SIIYISWSVRHHYVKVG it was -0.666 ± 0.46; in that of SIKNHRDREILAMPGVSRSA, “inactive”; in that of SILCLLNRLTFREYLMVFID, -0.583 ± 0.55.
The result for SINIYNFAQVSAFYCGLVEC reads 5.45 ± 0.078.
As for SISCSADFVFNCSHGHNTVP, the amyloid nucleation score is 6.17 ± 0.069.
Regarding SKDRCEVQLGKFTCLFMFDY, the amyloid nucleation score was -1.47 ± 0.55.
In the case of SKFYLKRKSDISYIYASPWR it was 1.94 ± 0.06; in that of SKHWTCS, 0.426 ± 0.57.
In the case of SKIVYFSYYTQM it was 6.775 ± 0.049; in that of SKLNAHVLAVFRLNEMNNHQ, 3.48 ± 0.056; in that of SKMICPHYK, 5.69 ± 0.071.
SKMVDLVVNPQVYCLRRVFW gave an amyloid nucleation score of 2.9 ± 0.078.
Turning to SKNSYSAHPKL, the amyloid nucleation score is 4.83 ± 0.06.
In the case of SKRDGVSSMIM it was 4.25 ± 0.069.
Consider SKSAPC, for which the amyloid nucleation score stood at 0.39 ± 0.29.
In the case of SKYGMFILGNRSNGDWFNMV it was -0.673 ± 0.48; in that of SKYLCRICDPMHLNLFCRWQ, 4.11 ± 0.059.
Take SLAPQMLPCHFSWILDPCC: the amyloid nucleation score is -0.01 ± 1.
The result for SLAYRFRWKLGNKVKF reads 2.02 ± 0.1.
Consider SLCLGHYFHGTAYNWVVLYI, for which the amyloid nucleation score came to 0.213 ± 0.8.
The result for SLDFAFRFFSICVICGQNAR reads 4.76 ± 0.082.
As to SLDQFSFGC, the amyloid nucleation score stood at 0.027 ± 0.65.
In the case of SLEGLLRPRKLVSCIDT it was “inactive”; in that of SLEGLSCFTLANCLLR, 0.288 ± 0.24; in that of SLEPYMFCSILINFYFFISV, 3 ± 0.14.
The result for SLGLGDVWGGQAYRSAGA reads 0.2 ± 0.28.
SLHLRRYIFNT gave an amyloid nucleation score of 7.339 ± 0.059.
For the substance SLHVTGWFTSDVVFNLWVDV, the amyloid nucleation score is -0.145 ± 0.48.
Consider SLIFSDPHLVIALNFT, for which the amyloid nucleation score came to 8.898 ± 0.061.
Take SLIVAIRFTA: the amyloid nucleation score turned out to be 2.5 ± 0.24.
The result for SLLGRRIFWLCHEFMSSSLV reads 0.21 ± 1; that for SLLKNPASMCSNSIFCAYVG, 8.708 ± 0.069; that for SLLSWRFVFCCMEYRVFLVV, “inactive”.
The substance SLLVDALR showed an amyloid nucleation score of 0.513 ± 0.39.
In turn, SLMFKRRK returned an amyloid nucleation score of 0.317 ± 0.28.
Regarding SLNVVMGAD, the amyloid nucleation score is -1.15 ± 0.76.
The substance SLRMGFTKSVVARGAWRNWV returned an amyloid nucleation score of 4.1 ± 0.057.
In the case of SLTASCI it was -0.471 ± 0.76; in that of SLTFSGMP, “inactive”; in that of SLVLV, 0.803 ± 0.47.
In the case of SLVTISFLGLFGSSSALVVA it was -0.114 ± 1.1; in that of SLWNIVRCRVENDSSGTQGF, -0.414 ± 0.5; in that of SLWTNTSWSAVVQNNWYGTF, 6.94 ± 0.054.
The result for SLYDGRVVRMYSRH reads 2.65 ± 0.1; that for SLYMFLVSALVQSYLLV, -1.4 ± 0.45.
In turn, SLYVVQYCRSRYLVNCTDRV yielded an amyloid nucleation score of 0.129 ± 0.33.
As for SMCGSNAFLDTDRDVRHDDF, the amyloid nucleation score is -1.05 ± 0.78.
Take SMEVAFSELSKVKRTTCVDY: the amyloid nucleation score result was “inactive”.
With SMFSRRNIQKSCFCYWNRLC, the amyloid nucleation score was -0.418 ± 1.1.
As to SMHGSNVIWESFILRQEHDV, the amyloid nucleation score was -0.268 ± 0.31.
Consider SMISM, for which the amyloid nucleation score came to 0.947 ± 0.3.
As for SMKHRHSRMVTFGVLV, the amyloid nucleation score stood at 0.163 ± 0.28.
In the case of SMMTVADP it was -0.529 ± 0.79; in that of SMRISHTGAQQDLDDCAMRK, 0.635 ± 0.65.
In the case of SMRVVCYWVLRW it was 3.16 ± 0.075; in that of SMTDRFPSIIYRECILWVTW, -0.035 ± 0.76.
In the case of SMYSSASMQWSDRFNILYEV it was -0.291 ± 0.31; in that of SMYVN, -0.384 ± 0.56; in that of SNCFNCYLISNWKYVTVSLS, 6.23 ± 0.067.
The substance SNDDIEIAKRSHMY yielded an amyloid nucleation score of 0.196 ± 0.54.
The result for SNEGWIKCWILYFVFGAWMI reads -0.896 ± 0.79.
In the case of SNFCFSTR it was 0.328 ± 0.32.
In the case of SNGKYG it was 1.32 ± 0.26; in that of SNGYYSNGPTLLHATTHVTV, -0.431 ± 0.64.
For SNKTIYKLFRIISPGYFGSS, the amyloid nucleation score was -1.16 ± 1.
Consider SNNMFWFLNYYVGIYMWISP, for which the amyloid nucleation score was -1.21 ± 0.75.
In the case of SNSRKMCDMGKDDNGYKGTH it was -0.483 ± 1; in that of SNVLFWI, “inactive”.
The result for SNVSVYPTMWGRVVHRPYTW reads 0.032 ± 0.39; that for SNYGTGDGCCVGV, 1.81 ± 0.099.
The result for SPAQCIGVCNRLKLYCST reads 0.262 ± 0.45; that for SPLEKATRFPTWEQCTVASM, 0.405 ± 0.23.
SPLHKKVYKRLRLTSDTRQI: the amyloid nucleation score was -0.516 ± 0.55.
